Results on 5 substances are retold here after IntAct's records for PubMed 10444103.

For assay [1], the target named is mad14_orysj MADS14 (UniProt Q10CQ1).
Assay [2] shares this target. This is another data set of the same source.

mad14_orysj MADS14, sequence (Q10CQ1 whole entry): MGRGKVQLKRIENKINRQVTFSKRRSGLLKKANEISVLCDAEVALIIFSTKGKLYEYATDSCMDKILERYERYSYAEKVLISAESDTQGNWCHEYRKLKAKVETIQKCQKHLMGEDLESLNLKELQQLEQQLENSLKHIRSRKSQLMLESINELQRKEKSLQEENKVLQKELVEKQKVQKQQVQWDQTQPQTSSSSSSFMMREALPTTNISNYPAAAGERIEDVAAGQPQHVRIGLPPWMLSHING
MADS-box transcription factor 6 (Oryza sativa subsp. japonica (Rice)), Q6EU39 L126R;L134R, sequence (Q6EU39 whole entry L126R/L134R): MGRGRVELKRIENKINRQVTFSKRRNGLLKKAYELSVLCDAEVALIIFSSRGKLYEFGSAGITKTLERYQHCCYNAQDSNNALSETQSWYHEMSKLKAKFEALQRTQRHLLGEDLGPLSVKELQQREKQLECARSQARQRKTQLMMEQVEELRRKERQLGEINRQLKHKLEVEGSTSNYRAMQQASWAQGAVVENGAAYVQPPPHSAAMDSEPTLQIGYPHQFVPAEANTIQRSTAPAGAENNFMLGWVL
MADS-box transcription factor 6 (Oryza sativa subsp. japonica (Rice)), Q6EU39 L110R;L118R;L159R;L166R, sequence (Q6EU39 whole entry L110R/L118R/L159R/L166R): as the sequence (Q6EU39 whole entry L126R/L134R) above, with L110R, L118R, R126L, R134L, L159R, L166R counted along it
MADS-box transcription factor 6 (Oryza sativa subsp. japonica (Rice)), Q6EU39 L110R;L118R, sequence (Q6EU39 whole entry L110R/L118R): as the sequence (Q6EU39 whole entry L126R/L134R) above, with L110R, L118R, R126L, R134L counted along it
MADS-box transcription factor 6 (Oryza sativa subsp. japonica (Rice)), Q6EU39 L159R;L166R, sequence (Q6EU39 whole entry L159R/L166R): as the sequence (Q6EU39 whole entry L126R/L134R) above, with R126L, R134L, L159R, L166R counted along it
MADS-box transcription factor 6 (Oryza sativa subsp. japonica (Rice)), Q6EU39 L110S;L118R, sequence (Q6EU39 whole entry L110S/L118R): as the sequence (Q6EU39 whole entry L126R/L134R) above, with L110S, L118R, R126L, R134L counted along it

Take “MADS-box transcription factor 6 (Oryza sativa subsp. japonica (Rice)), Q6EU39 L110R;L118R”: the “effect of a mutation on the interaction” value in assay [1] was “decreasing interaction strength”.

With “MADS-box transcription factor 6 (Oryza sativa subsp. japonica (Rice)), Q6EU39 L159R;L166R”, in assay [1], the “effect of a mutation on the interaction” value is reported as “disrupting interaction strength”.

With “MADS-box transcription factor 6 (Oryza sativa subsp. japonica (Rice)), Q6EU39 L110R;L118R;L159R;L166R”, the “effect of a mutation on the interaction” value in assay [2] and in assay [1] was “disrupting interaction strength” throughout.

Turning to “MADS-box transcription factor 6 (Oryza sativa subsp. japonica (Rice)), Q6EU39 L110S;L118R”, the “effect of a mutation on the interaction” value in assay [2] is on record as “decreasing interaction strength”.

With “MADS-box transcription factor 6 (Oryza sativa subsp. japonica (Rice)), Q6EU39 L126R;L134R”, the “effect of a mutation on the interaction” value in assay [2] and in assay [1] was “disrupting interaction strength” each time.
